In patent US20130202594A1, “ALK1 Antagonists and Their Uses in Treating Renal Cell Carcinoma” (priority 2012, published 2013):
Entries after “also recorded” stand apart in the source; their conditions may differ.

Columns and labels:
advanced RCC = conditions: cited from earlier work
[1] = test system: angiogenesis in chick chorioallantoic membrane; test: CAM (chick chorioallantoic membrane) angiogenesis assay; assay type: in vivo
Source text: In preferred embodiments, an ALK1 ECD polypeptide binds to one or more of GDF5, GDF6, GDF7, BMP9 and BMP10. […] Binding may be assessed using purified proteins in solution or in a surface plasmon resonance system, such as a Biacore™ system. […] Bioassays for angiogenesis inhibitory activity include the chick chorioallantoic membrane (CAM) assay, the mouse corneal micropocket assay, or an assay known in the art for measuring the effect of administering isolated or synthesized proteins on implanted tumors. The CAM assay is described by O'Reilly, et al., in “Angiogenic Regulation of Metastatic Growth” Cell, 1994; 79 (2):315-328. Briefly, 3 day old chicken embryos with intact yolks are separated from the egg and placed in a petri dish. After 3 days of incubation, a methylcellulose disc containing the protein to be tested is applied to the CAM of individual embryos. After 48 hours of incubation, the embryos and CAMs are observed to determine whether endothelial growth has been inhibited. The mouse corneal micropocket assay involves implanting a growth factor-containing pellet, along with another pellet containing the suspected endothelial growth inhibitor, in the cornea of a mouse and observing the pattern of capillaries that are elaborated in the cornea. Other assays are described in the Examples.
VEGF and FGF are well-known to stimulate angiogenesis. A CAM (chick chorioallantoic membrane) assay system was used to assess the angiogenic effects of GDF7.
ALK1-Fc fusions were tested for anti-angiogenic activity in the CAM assay.
ALK1-Fc proteins and a commercially available, anti-angiogenic anti-VEGF monoclonal antibody were compared in the CAM assay. The ALK1-Fc proteins had similar potency as compared to anti-VEGF. The anti-VEGF antibody bevacizumab is currently used in the treatment of cancer and macular degeneration in humans.

[2] = test system: collagen-induced arthritis; test: Murine collagen-induced arthritis (CIA) model of rheumatoid arthritis; assay type: in vivo, mouse; conditions: bevacizumab treated mice; day 42
Method: RAP-041 is mALK1-Fc. Avastin™ is the anti-VEGF antibody bevacizumab.
The murine collagen-induced arthritis model is a well-accepted model of rheumatoid arthritis. […] Nonetheless, a dose-related trend is apparent.
By study termination at day 42 the incidence of arthritis had reached 10/10 in the vehicle control treated mice, 9/10 in the bevacizumab treated mice, 8/10 in the mALK1-Fc at 1 mg/kg treated group and 9/10 in the mALK1-Fc 10 mg/kg treated group. In the mALK1-Fc 25 mg/kg treated group disease incidence was lower at 6/10.

[3] = test system: angiogenesis in chick chorioallantoic membrane; test: CAM assay of BMP9 and anti-BMP9 with or without VEGF; assay type: in vivo; conditions: for effect on angiogenesis in the presence of VEGF: VEGF-mediated angiogenesis
Source text: A CAM (chick chorioallantoic membrane) assay system was used to assess the angiogenic effects of recombinant human BMP9 (rhB9) and anti-BMP9 monoclonal antibody (mabB9) (R&D Systems, Minneapolis, Minn., Cat. No. MAB3209). This antibody is known to neutralize BMP9/ALK1 signaling. See, e.g., Scharpfenecker et al., J Cell Sci. 2007 Mar. 15; 120(Pt 6):964-72; David et al., (2007); Blood March 1; 109(5):1953-61; David et al., Circ. Res. 2008 Apr. 25; 102(8):914-22.
In the absence of VEGF, both proteins were used at the 50 ng dosed 1×/day on days 1 and 3 in the 5-day cycle. […] However, the effects of the anti-BMP9 antibody are in remarkable contrast to the published literature.

Molecule: CCN(CC)CCNC(=O)c1c(C)[nH]c(/C=C2\C(=O)Nc3ccc(F)cc32)c1C [sunitinib]
- patients requiring dose reductions (advanced RCC; RCC patients, to manage toxicities): 50%

Molecule: PDGF
- angiogenic effect (stimulation of angiogenesis) [1]: relatively poor capability to induce angiogenesis

Molecule: bevacizumab
- incidence of arthritis [2]: 9/10

Molecule: interferon-alpha
- overall survival (advanced RCC; patients with advanced disease): 21.8 months

B1: GDF7: growth differentiation factor, ALK1 ligand tested in CAM assay (protein)
chain: TALAGTRTAQGSGGGAGRGHGRRGRSRCSRKPLHVDFKELGWDDWIIAPLDYEAYHCEGLCDFPLRSHLEPTNHAIIQTLLNSMAPDAAPASCCVPARLSPISILYIDAANNVVYKQYEDMVVEACGCR
- angiogenic effect (stimulation of angiogenesis) [1]: stimulates angiogenesis with a potency that is similar to that of VEGF; also recorded: comparable to that of VEGF

B2: rhB9: recombinant human BMP9 (protein)
chain: SAGAGSHCQKTSLRVNFEDIGWDSWIIAPKEYEAYECKGGCFFPLADDVTPTKHAIVQTLVHLKFPTKVGKACCVPTKLSPISVLYKDDMGVPTLKYHYEGMSVAECGCR
- effect on angiogenesis in the absence of exogenous VEGF ([3]; 50 ng 1×/day on days 1 and 3): Neither BMP9 nor anti-BMP9 had a substantial effect on angiogenesis
- effect on angiogenesis in the presence of VEGF [3]: inhibit VEGF-mediated angiogenesis
- effect on angiogenesis in the presence of VEGF ([3]; listed as BMP9): substantial anti-angiogenic effect
- angiogenic effect (stimulation of angiogenesis) [1]: relatively poor capability to induce angiogenesis
